Substrate in this series: O=[N+]([O-])c1ccc(O[C@@H]2OC[C@@H](O[C@@H]3OC[C@@H](O)[C@H](O)[C@H]3O)[C@H](O)[C@H]2O)cc1
Put plainly: Eadie-Hofstee plot of hydrolysis. The series is classed as biochemical, Halalkalibacterium halodurans. As to conditions: pH and temperature of kinetic assay not stated (activity assay: glycine-NaOH pH 9.0, 70 °C). The source says: Eadie-Hofstee plot of hydrolysis on S7-xyl (Xyn10A in Table 1)

[1] abbreviates: mutant 254RL1, text b16 says Km slightly increased by 10%, table shows a decrease.

Drawing on article PMC6874815, “Tunnel engineering to accelerate product release for better biomass-degrading abilities in lignocellulolytic enzymes” (Biotechnology for Biofuels, 2019), this text covers Km, kcat and kcat/Km for two proteins.

Numbering of substitutions follows the chain as printed. In names and notes the source's numbering stands.

The Km is the concentration of substrate that gives half-maximal velocity. Broadly, the kcat is the number of substrate molecules converted per active site and unit of time at saturation. A word on the kcat/Km: it is the second-order rate constant that governs catalysis at low substrate concentration.

B1: S7-xyl (Xyn10A in Table 1) (Halalkalibacterium halodurans C-125) (protein)
chain: AQGGPPKSGVFGENEKRNDQPFAWQVASLSERYQEQFDIGAAVEPYQLEGRQAQILKHHYNSLVAENAMKPESLQPREGEWNWEGADKIVEFARKHNMELRFHTLVWHSQVPEWFFIDEDGNRMVDETDPDKREANKQLLLERMENHIKTVVERYKDDVTSWDVVNEVIDDGGGLRESEWYQITGTDYIKVAFETARKYGGEEAKLYINDYNTEVPSKRDDLYNLVKDLLEQGVPIDGVGHQSHIQIGWPSIEDTRASFEKFTSLGLDNQVTELDMSLYGWPPTGAYTSYDDIPAELLQAQADRYDQLFELYEELAADISSVTFWGIADNHTWLDGRAREYNNGVGIDAPFVFDHNYRVKPAYWRIID
notes: N-terminal His-tag, pET-28a, E. coli Rosetta (DE3), codon-optimized synthetic gene; GH10
On to B1, for which, under “listed as labelled Xyn10A”, the Km is 4.42 ± 0.12 mM, the kcat is 4.57 ± 0.31 s⁻¹ and the specificity constant (kcat/Km) worked out at 1030 M⁻¹ s⁻¹.

B2: S7-xyl (Xyn10A in Table 1) (Halalkalibacterium halodurans C-125; Q274S/V243N/W277R) (protein)
chain: B1 chain with V215N, Q246S, W249R
notes: as for B1
With B2, under setting [1], the Km was 4.04 ± 0.27 mM, the kcat stood at 14.4 ± 0.21 s⁻¹ and the specificity constant (kcat/Km) was 3540 M⁻¹ s⁻¹.
